From PMC11214414
Like-named read-outs stand apart in the source and are kept apart here.

Legend:
Assay in all cases: EMSA
[1] = target: HsASCC1 GDDG mutant (Homo sapiens, UniProt Q8N9N2-2 1-357, K76D;R77D)
[2] = target: T1, HsASCC1 WT (Homo sapiens, UniProt Q8N9N2-2)
[3] = target: T1, HsASCC1 WT; remark: listed apart in the source

Row | Binder | binding result [1] | binding result [2] | binding result [3]
1 | UUUUCGCGUUUU (ssRNA) [CGCG RNA] | no binding | binds | 
2 | TTTTCGCGTTTT (ssDNA) [CGCG DNA] |  |  | no binding
